Laboratory results: US20030068675, “Position dependent recognition of GNN nucleotide triplets by zinc fingers” (published 2003)

Legend:
Test in all cases: EMSA
Details in all cases: tags: MBP fusion
ZFP SBS#1063 = molecular target: T1, ZFP SBS#1063 (synthetic, UniProt P08047)
T1 chain: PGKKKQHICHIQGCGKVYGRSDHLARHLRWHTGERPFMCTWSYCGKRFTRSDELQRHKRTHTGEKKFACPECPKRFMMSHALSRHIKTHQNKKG
In short: (§1)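 Purified ZFP was titrated against labeled double-stranded target (1 nM or lower, at least 10-fold below expected Kd) carrying the natural binding site with flanks. Binding buffer was 10 mM Tris pH 7.5, 100 mM KCl, 1 mM MgCl2, 0.1 mM ZnCl2, 5 mM DTT, 10% glycerol, 0.02% BSA, with equilibration for at least 45 min. Bound and free target were separated on a 10% polyacrylamide gel.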

ZFP SBS#1062 = molecular target: T2, ZFP SBS#1062 (synthetic)
T2 chain: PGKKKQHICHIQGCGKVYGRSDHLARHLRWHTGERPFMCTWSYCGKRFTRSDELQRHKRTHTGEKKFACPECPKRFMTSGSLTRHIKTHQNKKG
In short: as §1

ZFP SBS#1061 = ZFP SBS#1061 (synthetic)
In short: as §1

ZFP SBS#1060 = molecular target: T3, ZFP SBS#1060 (synthetic)
T3 chain: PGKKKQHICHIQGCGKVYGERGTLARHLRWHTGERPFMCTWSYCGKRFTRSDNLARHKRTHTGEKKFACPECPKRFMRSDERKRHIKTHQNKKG
In short: as §1

ZFP SBS#1059 = molecular target: T4, ZFP SBS#1059 (synthetic)
T4 chain: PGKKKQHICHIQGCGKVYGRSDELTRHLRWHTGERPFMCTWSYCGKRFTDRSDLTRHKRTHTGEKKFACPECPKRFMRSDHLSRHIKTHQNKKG
In short: as §1

ZFP SBS#1058 = molecular target: T5, ZFP SBS#1058 (synthetic)
T5 chain: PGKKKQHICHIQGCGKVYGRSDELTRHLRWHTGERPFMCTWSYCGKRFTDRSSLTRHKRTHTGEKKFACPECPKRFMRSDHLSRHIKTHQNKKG
In short: as §1

ZFP SBS#453 = ZFP SBS#453 (synthetic)
In short: as §1

ZFP SBS#441 = ZFP SBS#441 (synthetic)
In short: as §1

ZFP SBS#1047 = molecular target: T6, ZFP SBS#1047 (synthetic)
T6 chain: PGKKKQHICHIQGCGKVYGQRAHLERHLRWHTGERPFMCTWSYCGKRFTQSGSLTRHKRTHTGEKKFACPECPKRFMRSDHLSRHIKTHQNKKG
In short: as §1

ZFP SBS#1046 = ZFP SBS#1046 (synthetic)
In short: as §1

ZFP SBS#1045 = ZFP SBS#1045 (synthetic)
In short: as §1

ZFP SBS#461 = molecular target: T7, ZFP SBS#461 (synthetic)
T7 chain: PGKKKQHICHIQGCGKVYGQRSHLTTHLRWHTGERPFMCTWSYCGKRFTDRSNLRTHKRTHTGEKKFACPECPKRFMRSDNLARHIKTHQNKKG
In short: as §1

ZFP SBS#944 = ZFP SBS#944 (synthetic, UniProt P08047)
In short: as §1

ZFP SBS#941 = molecular target: T8, ZFP SBS#941 (synthetic)
T8 chain: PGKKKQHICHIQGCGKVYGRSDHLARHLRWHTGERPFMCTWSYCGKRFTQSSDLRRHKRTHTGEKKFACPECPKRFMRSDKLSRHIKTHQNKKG
In short: as §1

ZFP SBS#943 = molecular target: T9, ZFP SBS#943 (synthetic)
T9 chain: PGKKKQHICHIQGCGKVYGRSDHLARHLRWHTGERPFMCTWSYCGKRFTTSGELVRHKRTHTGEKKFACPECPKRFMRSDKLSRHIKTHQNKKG
In short: as §1

ZFP SBS#993 = molecular target: T10, ZFP SBS#993 (synthetic, UniProt P08047)
T10 chain: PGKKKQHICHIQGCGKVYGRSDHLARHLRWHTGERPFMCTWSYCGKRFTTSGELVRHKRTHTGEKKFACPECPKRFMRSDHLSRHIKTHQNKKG
In short: as §1

ZFP SBS#1040 = ZFP SBS#1040 (synthetic, UniProt P08047)
In short: as §1

ZFP SBS#942 = ZFP SBS#942 (synthetic, UniProt P08047)
In short: as §1

ZFP SBS#1039 = molecular target: T11, ZFP SBS#1039 (synthetic)
T11 chain: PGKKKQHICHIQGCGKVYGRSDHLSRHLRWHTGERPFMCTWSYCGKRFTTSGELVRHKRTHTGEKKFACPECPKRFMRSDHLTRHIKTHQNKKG
In short: as §1

ZFP SBS#1051 = molecular target: T12, ZFP SBS#1051 (synthetic)
T12 chain: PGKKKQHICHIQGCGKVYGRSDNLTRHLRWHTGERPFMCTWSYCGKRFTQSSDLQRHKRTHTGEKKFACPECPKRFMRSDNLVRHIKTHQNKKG
In short: as §1

ZFP SBS#1043 = ZFP SBS#1043 (synthetic)
In short: as §1

ZFP SBS#1044 = molecular target: T13, ZFP SBS#1044 (synthetic)
T13 chain: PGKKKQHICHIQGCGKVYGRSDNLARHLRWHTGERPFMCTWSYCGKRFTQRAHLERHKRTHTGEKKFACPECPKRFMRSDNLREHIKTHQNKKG
In short: as §1

ZFP SBS#1057 = ZFP SBS#1057 (synthetic)
In short: as §1

ZFP SBS#1055 = molecular target: T14, ZFP SBS#1055 (synthetic)
T14 chain: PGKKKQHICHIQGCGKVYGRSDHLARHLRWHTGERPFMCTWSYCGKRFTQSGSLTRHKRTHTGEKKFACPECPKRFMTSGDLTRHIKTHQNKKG
In short: as §1

ZFP SBS#1056 = ZFP SBS#1056 (synthetic)
In short: as §1

ZFP SBS#1054 = ZFP SBS#1054 (synthetic)
In short: as §1

ZFP SBS#1064 = molecular target: T15, ZFP SBS#1064 (synthetic)
T15 chain: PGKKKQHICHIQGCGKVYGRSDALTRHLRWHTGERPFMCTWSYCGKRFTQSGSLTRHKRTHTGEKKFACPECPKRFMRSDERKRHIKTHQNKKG
In short: as §1

ZFP SBS#1041 = molecular target: T16, ZFP SBS#1041 (synthetic)
T16 chain: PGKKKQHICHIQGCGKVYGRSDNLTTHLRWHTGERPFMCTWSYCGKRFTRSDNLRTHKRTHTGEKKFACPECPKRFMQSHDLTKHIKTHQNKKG
In short: as §1

ZFP SBS#919 = molecular target: T17, ZFP SBS#919 (synthetic)
T17 chain: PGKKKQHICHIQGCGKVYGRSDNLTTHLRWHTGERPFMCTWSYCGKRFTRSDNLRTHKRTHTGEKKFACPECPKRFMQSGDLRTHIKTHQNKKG
In short: as §1

ZFP SBS#1066 = molecular target: T18, ZFP SBS#1066 (synthetic)
T18 chain: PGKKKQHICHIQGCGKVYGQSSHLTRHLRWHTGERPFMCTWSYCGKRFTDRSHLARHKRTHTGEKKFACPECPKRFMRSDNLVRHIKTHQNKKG
In short: as §1

ZFP SBS#1067 = molecular target: T19, ZFP SBS#1067 (synthetic)
T19 chain: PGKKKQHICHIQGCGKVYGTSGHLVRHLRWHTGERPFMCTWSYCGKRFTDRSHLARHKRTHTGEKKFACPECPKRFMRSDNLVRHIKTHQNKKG
In short: as §1

ZFP SBS#1053 = molecular target: T20, ZFP SBS#1053 (synthetic)
T20 chain: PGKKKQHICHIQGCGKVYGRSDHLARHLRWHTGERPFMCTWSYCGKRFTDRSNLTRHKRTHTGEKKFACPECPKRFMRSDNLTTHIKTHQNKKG
In short: as §1

ZFP SBS#1052 = molecular target: T21, ZFP SBS#1052 (synthetic)
T21 chain: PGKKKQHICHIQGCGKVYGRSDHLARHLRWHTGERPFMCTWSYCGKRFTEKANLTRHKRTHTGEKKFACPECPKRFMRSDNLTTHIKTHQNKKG
In short: as §1

ZFP SBS#1048 = molecular target: T22, ZFP SBS#1048 (synthetic)
T22 chain: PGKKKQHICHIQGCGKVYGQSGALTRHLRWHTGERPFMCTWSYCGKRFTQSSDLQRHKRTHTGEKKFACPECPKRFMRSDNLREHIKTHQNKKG
In short: as §1

ZFP SBS#1049 = molecular target: T23, ZFP SBS#1049 (synthetic)
T23 chain: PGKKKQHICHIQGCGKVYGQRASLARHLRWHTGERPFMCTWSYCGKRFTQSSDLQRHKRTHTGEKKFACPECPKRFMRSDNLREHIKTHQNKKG
In short: as §1

ZFP SBS#1050 = ZFP SBS#1050 (synthetic)
In short: as §1

ZFP SBS#1065 = molecular target: T24, ZFP SBS#1065 (synthetic)
T24 chain: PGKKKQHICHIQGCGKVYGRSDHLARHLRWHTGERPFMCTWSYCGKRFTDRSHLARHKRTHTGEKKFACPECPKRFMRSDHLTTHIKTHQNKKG
In short: as §1

Chain of ZFP SBS#441 (synthetic) (chain, as listed by the source): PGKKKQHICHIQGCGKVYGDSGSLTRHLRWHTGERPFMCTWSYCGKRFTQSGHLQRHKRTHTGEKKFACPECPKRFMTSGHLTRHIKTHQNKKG
Chain of ZFP SBS#453 (synthetic) (chain, as listed by the source): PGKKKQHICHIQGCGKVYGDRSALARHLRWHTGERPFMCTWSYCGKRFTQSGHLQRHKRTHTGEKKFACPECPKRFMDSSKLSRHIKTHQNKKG
Chain of ZFP SBS#1057 (synthetic) (chain, as listed by the source): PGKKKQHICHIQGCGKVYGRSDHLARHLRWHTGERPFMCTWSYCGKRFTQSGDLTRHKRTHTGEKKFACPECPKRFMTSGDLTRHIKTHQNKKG
Chain of ZFP SBS#1054 (synthetic) (chain, as listed by the source): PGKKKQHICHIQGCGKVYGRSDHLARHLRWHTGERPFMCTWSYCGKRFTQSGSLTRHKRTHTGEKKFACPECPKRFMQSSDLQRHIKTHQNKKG
Chain of ZFP SBS#1045 (synthetic) (chain, as listed by the source): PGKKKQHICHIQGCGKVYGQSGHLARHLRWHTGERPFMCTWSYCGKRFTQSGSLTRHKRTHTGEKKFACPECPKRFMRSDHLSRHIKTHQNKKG
Chain of ZFP SBS#1040 (P08047 other isoform, or with tags, fused parts or gaps): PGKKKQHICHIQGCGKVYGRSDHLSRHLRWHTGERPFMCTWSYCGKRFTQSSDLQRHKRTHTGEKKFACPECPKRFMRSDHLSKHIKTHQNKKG
Chain of ZFP SBS#1043 (synthetic) (chain, as listed by the source): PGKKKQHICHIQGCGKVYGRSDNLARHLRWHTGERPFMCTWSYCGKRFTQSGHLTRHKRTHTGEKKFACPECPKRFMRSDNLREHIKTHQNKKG
Chain of ZFP SBS#944 (P08047 other isoform, or with tags, fused parts or gaps): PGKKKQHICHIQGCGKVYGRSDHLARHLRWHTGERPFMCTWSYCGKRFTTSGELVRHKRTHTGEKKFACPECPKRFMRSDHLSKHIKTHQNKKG
Chain of ZFP SBS#1061 (synthetic) (chain, as listed by the source): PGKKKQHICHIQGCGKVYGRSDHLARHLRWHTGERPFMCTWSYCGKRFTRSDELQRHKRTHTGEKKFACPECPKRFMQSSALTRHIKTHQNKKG
Chain of ZFP SBS#942 (P08047 other isoform, or with tags, fused parts or gaps): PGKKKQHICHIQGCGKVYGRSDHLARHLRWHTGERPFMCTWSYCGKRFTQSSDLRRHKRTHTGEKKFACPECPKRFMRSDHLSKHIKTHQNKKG
Chain of ZFP SBS#1050 (synthetic) (chain, as listed by the source): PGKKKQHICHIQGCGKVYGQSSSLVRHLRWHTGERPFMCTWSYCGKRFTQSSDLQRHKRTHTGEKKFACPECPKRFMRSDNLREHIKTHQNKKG

B1: GTTGCGGGG (dsDNA)
DNA 1: GTTGCGGGG
DNA 2: CCCCGCAAC
Kd (ZFP SBS#1063): 0.96 nM
Kd (ZFP SBS#1062): 0.068 nM
Kd (ZFP SBS#1061): 0.165 nM

B2: GCGGAGGCC (dsDNA)
DNA 1: GCGGAGGCC
DNA 2: GGCCTCCGC
Kd (ZFP SBS#1060): 0.69 nM

B3: GGGGCCGCG (dsDNA)
DNA 1: GGGGCCGCG
DNA 2: CGCGGCCCC
Kd (ZFP SBS#1059): 0.152 nM
Kd (ZFP SBS#1058): 6.28 nM

B4: GGTGGAGTCA (dsDNA)
DNA 1: GGTGGAGTCA
DNA 2: TGACTCCACC
Kd (ZFP SBS#453): 150 nM
Kd (ZFP SBS#441): 250 nM

B5: GGGGCAGGA (dsDNA)
DNA 1: GGGGCAGGA
DNA 2: TCCTGCCCC
Kd (ZFP SBS#1047): 24.7 nM
Kd (ZFP SBS#1046): 0.09 nM
Kd (ZFP SBS#1045): 0.15 nM

B6: GAGTACTGTA (dsDNA)
DNA 1: GAGTACTGTA
DNA 2: TACAGTACTC
Kd (ZFP SBS#461): 120 nM

B7: GGGGCTGGG (dsDNA)
DNA 1: GGGGCTGGG
DNA 2: CCCAGCCCC
Kd (ZFP SBS#944): 0.027 nM
Kd (ZFP SBS#941): 0.077 nM
Kd (ZFP SBS#943): 0.067 nM
Kd (ZFP SBS#993): 3.1 nM
Kd (ZFP SBS#1040): 0.05 nM
Kd (ZFP SBS#942): 0.13 nM
Kd (ZFP SBS#1039): 1.37 nM

B8: GAGGCTGAG (dsDNA)
DNA 1: GAGGCTGAG
DNA 2: CTCAGCCTC
Kd (ZFP SBS#1051): 0.02 nM

B9: CAGGGAGAG (dsDNA)
DNA 1: CAGGGAGAG
DNA 2: CTCTCCCTG
Kd (ZFP SBS#1043): 0.16 nM
Kd (ZFP SBS#1044): 1.07 nM

B10: GCTGCAGGG (dsDNA)
DNA 1: GCTGCAGGG
DNA 2: CCCTGCAGC
Kd (ZFP SBS#1057): 0.483 nM
Kd (ZFP SBS#1055): 18.7 nM
Kd (ZFP SBS#1056): 0.045 nM
Kd (ZFP SBS#1054): 0.033 nM

B11: GCGGCAGTG (dsDNA)
DNA 1: GCGGCAGTG
DNA 2: CACTGCCGC
Kd (ZFP SBS#1064): 0.453 nM

B12: TCATAGTAG (dsDNA)
DNA 1: TCATAGTAG
DNA 2: CTACTATGA
Kd (ZFP SBS#1041): 2.06 nM
Kd (ZFP SBS#919): 250 nM

B13: GAGGGCGGT (dsDNA)
DNA 1: GAGGGCGGT
DNA 2: ACCGCCCTC
Kd (ZFP SBS#1066): 0.15 nM
Kd (ZFP SBS#1067): 1.37 nM

B14: TAGGACGGG (dsDNA)
DNA 1: TAGGACGGG
DNA 2: CCCGTCCTA
Kd (ZFP SBS#1053): 0.025 nM
Kd (ZFP SBS#1052): 0.28 nM

B15: CAGGCTGTA (dsDNA)
DNA 1: CAGGCTGTA
DNA 2: TACAGCCTG
Kd (ZFP SBS#1048): 1.39 nM
Kd (ZFP SBS#1049): 55.6 nM
Kd (ZFP SBS#1050): 0.125 nM

B16: TGGGGCGGG (dsDNA)
DNA 1: TGGGGCGGG
DNA 2: CCCGCCCCA
Kd (ZFP SBS#1065): 1.37 nM
